Assay results reported in patent publication US20230052680A1 (DIZAL JIANGSU PHARMACEUTICAL, published 2023).

Legend:
[1] = target: T1, recombinant rat/mouse FGFR2b-Fc (rat); test: ELISA, plate coated with 0.1 ug/ml rat/mouse FGFR2b-Fc, anti-human IgG HRP detection
T1 construct: also called rat FGFR2b fused with murine Fc
Protocol: (§1) The cross-species binding of Ab 36c to recombinant cyno, rat/mouse, and human FGFR2b-Fc fusion proteins was conducted with ELISA. In brief, 96-well ELISA plate were coated with about 100 ul/well 0.1 μg/ml recombinant human FGFR2b-Fc, recombinant rat/mouse FGFR2b-Fc, or recombinant cyno FGFR2b-Fc protein in PBS overnight. Then the plate was blocked with 2% BSA in PBS with 0.05% Tween20 and incubation with antibody samples for 60 min at room temperature, and then washed twice in 1×TBST (Cell Signaling Technology, #9997) and followed by incubation with anti-human lgG HRP (Horseradish peroxidase) conjugate for 60 min at a room temperature. HRP activity was detected with tetra-methylbenzidine substrate (Cell Signaling Technology, #7004) and the reaction was stopped with stop solution (Cell Signaling Technology, #7002). The plate was read at 450 nm. […] Ab 36c has the highest binding affinity to rat/mouse FGFR2b, followed by human FGFR2b, and then cyno FGFR2b.

[2] = target: T2, recombinant cyno FGFR2b-Fc (Cynomolgus monkey); test: ELISA, plate coated with 0.1 ug/ml cyno FGFR2b-Fc, anti-human IgG HRP detection
T2 construct: also called Cynomolgus monkey FGFR2b ECD-murine Fc; cynomolgus FGFR2b
Protocol: as §1

[3] = target: T3, recombinant human FGFR3b-Fc (human, UniProt P22607-2 23-377); test: ELISA, plate coated with HuFGFR3b
T3 construct: Bought (R&D Systems); not shown: human Fc of the bought fusion protein; not described
T3 sequence (looked up): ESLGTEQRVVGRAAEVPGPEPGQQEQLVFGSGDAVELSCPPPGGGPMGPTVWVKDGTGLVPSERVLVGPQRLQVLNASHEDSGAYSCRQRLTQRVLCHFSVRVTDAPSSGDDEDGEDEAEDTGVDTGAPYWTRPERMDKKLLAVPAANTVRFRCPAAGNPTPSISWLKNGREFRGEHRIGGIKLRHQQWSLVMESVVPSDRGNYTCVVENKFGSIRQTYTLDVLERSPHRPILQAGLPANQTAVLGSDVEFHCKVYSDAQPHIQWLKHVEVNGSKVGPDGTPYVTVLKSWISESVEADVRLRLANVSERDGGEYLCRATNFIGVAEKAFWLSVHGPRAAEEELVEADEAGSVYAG

[4] = target: T4, recombinant human FGFR4-Fc (human, UniProt P22455 22-369); test: ELISA, plate coated with HuFGFR4
T4 construct: Bought (R&D Systems); not shown: human Fc of the bought fusion protein; not described
T4 sequence (looked up): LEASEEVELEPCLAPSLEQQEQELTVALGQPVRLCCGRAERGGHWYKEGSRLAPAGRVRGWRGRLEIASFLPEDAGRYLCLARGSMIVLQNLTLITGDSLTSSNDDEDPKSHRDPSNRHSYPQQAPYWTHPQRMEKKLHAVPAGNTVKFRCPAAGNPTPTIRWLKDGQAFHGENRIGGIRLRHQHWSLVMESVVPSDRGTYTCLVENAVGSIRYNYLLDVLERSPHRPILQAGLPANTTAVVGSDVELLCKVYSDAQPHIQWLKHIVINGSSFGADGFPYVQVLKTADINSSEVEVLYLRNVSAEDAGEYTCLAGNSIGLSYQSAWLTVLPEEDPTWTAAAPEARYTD

[5] = target: T5, recombinant human FGFR1b-Fc (human, UniProt P11362-19 22-376, limits assumed); test: ELISA, plate coated with HuFGFR1b
T5 construct: Bought (R&D Systems); not shown: human Fc of the bought fusion protein; not described
T5 sequence (looked up): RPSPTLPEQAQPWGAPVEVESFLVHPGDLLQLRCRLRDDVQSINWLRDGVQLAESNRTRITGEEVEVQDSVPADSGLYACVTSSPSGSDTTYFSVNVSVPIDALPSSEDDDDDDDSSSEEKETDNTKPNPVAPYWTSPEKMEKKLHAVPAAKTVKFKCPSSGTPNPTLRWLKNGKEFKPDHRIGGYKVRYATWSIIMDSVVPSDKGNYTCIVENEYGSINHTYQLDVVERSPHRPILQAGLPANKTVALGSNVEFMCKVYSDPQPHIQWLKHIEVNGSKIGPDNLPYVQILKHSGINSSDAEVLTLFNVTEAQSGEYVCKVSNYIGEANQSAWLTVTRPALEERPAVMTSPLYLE

[6] = target: T3, recombinant human FGFR3b-Fc; test: ELISA on FGFR family Fc fusion proteins
[7] = target: T5, recombinant human FGFR1b-Fc; test: ELISA on FGFR family Fc fusion proteins
[8] = target: T4, recombinant human FGFR4-Fc; test: ELISA on FGFR family Fc fusion proteins

B1: Ab 36c (antibody, V domains shown)
VH: QPYLQQSGAELVRPGASVKMSCKASGYTFTSYNMHWVKQTPRQGLEWIGAIFPENGDTSYNQKFKGKATLTVDKSSSTAYMQLSSLTSEDSAVYFCARGGFDYWGQGTTLTVSS
VL: DIVMTQSHKFMSTSVGDRVSITCKASQDVSTNVAWYQQKPGQSPKLLIFSASYRYTGVPDRFAGSGSGTDFTFTISSVQAEDLAVYYCQQHYSSPYTFGGGTKLDIK
notes: Chimeric: mouse VH and VL fused to human heavy and light chain constant regions; also called chimeric Ab 36; Ab c 36c
- EC50 (read off the curve) [1]: ~200 pM
- EC50 (read off the curve) [2]: ~400 pM

B2: Ab 36 (antibody, V domains shown)
VH: B1 VH
VL: B1 VL
notes: Mouse monoclonal antibody from a hybridoma; also called mouse Ab 36; antibody 36
- binding result [3]: no binding
- binding result [4]: no binding
- binding result [5]: no binding

B3: Ab hu36-2 (antibody, human IgG1, V domains shown)
VH: QVQLVQSGAEVKKPGSSVKVSCKASGYTFTSYNMHWVRQAPGQGLEWIGAIFPENGDTSYNQKFKGRATITADKSTSTAYMELSSLRSEDTAVYYCARGGFDYWGQGTTVTVSS
VL: DIQMTQSPSSLSASVGDRVTITCKASQDVSTNVAWYQQKPGKAPKLLIFSASYRYTGVPSRFSGSGSGTDFTFTISSLQPEDIATYYCQQHYSSPYTFGQGTKLEIK
notes: Humanized antibody with human IgG1
- binding result [6]: no binding
- binding result [7]: no binding
- binding result [8]: no binding
